In patent US20230024933:

Columns and labels:
[1] = system: T1, phosphoserine substrate peptide RRApSVA
T1 sequence: RRASVA

[2] = biological target: histone γH2A.X^pY142, endogenous in primary murine fibroblast cultures (UniProt P27661)
[3] = system: T2, phosphotyrosine substrate peptide ENDpYINASL
T2 sequence: ENDYINASL

Substance | serine phosphatase activity (dephosphorylation assay) [1] | γH2A.X^pY142 foci per nucleus after NCS exposure [2] | activity to dephosphorylate peptide ENDpYINASL [3]
EYA1 isoform C (human splice variant EYA1C, exon 10 skipped) | dephosphorylation assays using the synthetic serine phosphatase substrate RRApSVA demonstrated superior serine phosphatase activity |  | 
mutant EYA1C to which exon 10 had been added (EYA1C::e10) |  | EYA1C containing exon 10 (EYA1C::e10) phenocopied EYA1A with regard to premature γH2A.X^pY142 dephosphorylation | overexpression of EYA1C::e10 phenocopied dephosphorylating efficacy and fibroblast accumulation of EYA1A
